Experiments:
GST-PAPP5 = molecular target: T1, GST-PAPP5 (Arabidopsis thaliana, UniProt Q84XU2); assay: In vitro phosphatase assay of GST-PAPP5 with ρNPP as substrate: effect of arachidonic acid and okadaic acid; type: biochemical
T1 sequence (Q84XU2 1-484 isoform Q84XU2-2): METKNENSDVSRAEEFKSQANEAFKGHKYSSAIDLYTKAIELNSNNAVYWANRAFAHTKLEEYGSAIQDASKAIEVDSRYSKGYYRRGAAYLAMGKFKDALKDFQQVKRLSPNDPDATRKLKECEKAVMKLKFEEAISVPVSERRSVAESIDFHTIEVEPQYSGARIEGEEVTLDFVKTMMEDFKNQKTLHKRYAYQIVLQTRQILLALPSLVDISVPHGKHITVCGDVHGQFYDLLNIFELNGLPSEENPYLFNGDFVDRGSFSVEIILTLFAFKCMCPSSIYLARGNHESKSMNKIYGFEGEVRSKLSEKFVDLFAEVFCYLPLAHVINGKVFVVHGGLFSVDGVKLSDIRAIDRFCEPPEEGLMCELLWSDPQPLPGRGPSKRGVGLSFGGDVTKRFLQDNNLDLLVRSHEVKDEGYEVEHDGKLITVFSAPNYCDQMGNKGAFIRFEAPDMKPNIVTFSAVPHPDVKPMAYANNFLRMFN
Procedure: In order to examine whether the inventive PAPP5 protein has enzymatic activity, an enzymatic assay was performed using […] ρ-nitrophenyl phosphate (ρNPP) as a substrate. First, the GST-PAPP5 fusion protein purified in Example <4-1> was prewarmed at 30° C. for 1 minute. The prewarmed enzyme solution was added to 100 μl of kinase/phosphatase (KP) buffer (20 mM Tris-HCl pH 7.5, 30 mM MgCl2, 1 mM EDTA, 1 mM EGTA, 0.1% β-mercaptoethanol, 0.1% ethanol) containing O-400 mM ρNPP to initiate a reaction. […] . After reaction at 30° C. for 15 minutes, 900 μl of 0.25N NaOH was added to terminate the reaction. The absorbance at 410 nm was measured. After subtracting the absorbance value of the control reaction solution containing all the components except for the enzyme from that of the reaction solution containing the enzyme, the rate was calculated using a millimolar extinction coefficient (17.8) of ρ-nitrophenolate ions.
In order to confirm if the phosphatase activity of the inventive PAPP5 protein is activated by arachidonic acid, 0-300 μM arachidonic acid was added to a reaction mixture in the presence of 100 mM ρNPP, and the enzymatic activity was measured according to the same method as Example <6-1>.
Thus, the inhibitory effect of okadaic acid on the phosphatase activity of GST-PAPP5 was examined. As a result, the IC50 of okadaic acid, at which the enzyme activity is inhibited by 50%, was 5 nM (data not shown).
(§1) Thus, in order to confirm if PAPP5 also have this property, the present inventors examined the phosphatase activities of GST-PAPP5, GST-TPR and GST-PP2Ac in the same manner as in Example <6-1>. At this time, the concentration of ρNPP was 100 mM.

[1] = molecular target: autophosphorylated oat Pfr phytochrome A (oat)
[2] = tested on: autophosphorylated oat phytochrome A; assay: Dephosphorylation of autophosphorylated phytochrome by PAPP5 in vitro; type: biochemical; settings: 1 μg fusion protein, 30 minutes
Procedure: First, KP buffer (20 mM Tris-HCl pH7.5, 30 mM MgCl2, 1 mM EDTA, 1 mM EGTA, 0.1% β-mercaptoethanol, 0.1% ethanol) containing 1 μg of purified oat phytochrome A (provided from Kumho Life and Environmental Science Laboratory, Korea) was set on ice and irradiated with Rc light output of 50 μmolS^−1m^−2 at 664 nm for 5 minutes. Then, the reaction solution was allowed to react with [γ-^32P]ATP in dark conditions for 30 minutes (autophosphorylation of phytochrome A). Following addition of 1 μg of each of the fusion proteins GST-PAPP5, GST-TPR and GST-PP2Ac prepared in Examples <4-1> and <5-1>, the reaction continued for more 30 minutes, and then stopped by adding 12 μl of 5× Tris-glycine SDS sample buffer under dim green safe light.
Next, the present inventors investigated whether the phosphatase activity of PAPP5 depends on a change in the spectroscopic structure (photoconversion) of phytochrome molecules (Pr⇄Pfr). KP buffer solution containing phytochrome was set on ice and irradiated with a Rc light output of 50 μmolS^−1m^−2 at 664 nm (conversion of phytochrome into Pfr form) or a FRc light output of 50 μmolS^−1m^−2 at 748 nm (conversion of phytochrome into […]) for 5 minutes. Then, the autophosphylation/dephosphorylation test of phytochrome was performed in the same manner as described above.

phytochrome molecules = assay: Pull-down assay with PAPP5 domain fragments; type: binding, Arabidopsis thaliana
Procedure: Thereafter, according to the same method as in Example <4-1>, an in vitro assay was performed on each of the proteins which have been expressed and purified in E. coli.

phytochromes = assay: Quantitative yeast two-hybrid assay (β-galactosidase activity); type: cell-based, Arabidopsis thaliana; settings: PHYA or PHYB bait, EGY48 yeast
Procedure: In order to quantitatively assay the interaction between the TPR domain of PAPP5 and phytochromes, each of recombinant vectors (preys) for the TPR domain of PAPP5 and for the PP2A catalytic domain of PAPP5 were prepared, respectively.
A PHYA gene or a PHYB gene was prepared by performing PCR according to the same method as in Example <4-2>, and inserted into a pGilda vector. The recombinant vector was used as a bait. The prepared bait or prey was co-introduced into an EGY48 yeast strain together with a pSH18-34 reporter plasmid. The transformed strain was cultured until the OD600 value reached about 0.7. The cultured cells were washed one time with Z-buffer solution (60 mM Na2HPO4, 40 mM NaH2PO4, 10 mM KCl, 1 mM MgSO4, pH 7.0), and then re-suspended in the solution. Thereafter, the solution was frozen with liquid N2. The frozen solution was dissolved, to which β-mercaptoethanol and ONPG (o-nitrophenyl-β-D-galactopyranoside) were then added at final concentrations of 0.2% and 0.67 mg/ml, respectively. The dissolved solution was allowed to react for 30 minutes at 37° C. Next, Na2CO3 was added to the solution at a final concentration of 0.3 M to terminate the reaction. The absorbance at […] was measured, and the β-galactosidase activity was determined in Miller units (Miller, J. H. Experiments in Molecular Genetics (Cold Spring Harbor Laboratory, Cold Spring harbor, N.Y., 1972)).

[3] = In vitro phosphatase assay: enzymatic activity of PAPP5 and its domain fragments on ρNPP; type: biochemical; settings: 100 mM ρNPP; regardless of the addition of arachidonic acid
Procedure: In order to examine whether the inventive PAPP5 protein has enzymatic activity, an enzymatic assay was performed using […] ρ-nitrophenyl phosphate (ρNPP) as a substrate. First, the GST-PAPP5 fusion protein purified in Example <4-1> was prewarmed at 30° C. for 1 minute. The prewarmed enzyme solution was added to 100 μl of kinase/phosphatase (KP) buffer (20 mM Tris-HCl pH 7.5, 30 mM MgCl2, 1 mM EDTA, 1 mM EGTA, 0.1% β-mercaptoethanol, 0.1% ethanol) containing O-400 mM ρNPP to initiate a reaction. To examine the autohydrolysis of ρNPP at each substrate concentration, the GST-PAPP5 enzyme solution was not added to a control group. After reaction at 30° C. for 15 minutes, 900 μl of 0.25N NaOH was added to terminate the reaction. The absorbance at 410 nm was measured. After subtracting the absorbance value of the control reaction solution containing all the components except for the enzyme from that of the reaction solution containing the enzyme, the rate was calculated using a millimolar extinction coefficient (17.8) of ρ-nitrophenolate ions.
as §1

With `CCCCC/C=C\C/C=C\C/C=C\C/C=C\CCCC(=O)O` [arachidonic acid] the “arachidonic acid concentration at which activity of GST-PAPP5 reached the stationary phase” value (GST-PAPP5; 0-300 μM arachidonic acid, 100 mM ρNPP) was “above 100 μM” and the “increase of phosphatase activity of GST-PAPP5 by arachidonic acid” value (GST-PAPP5; 100 mM ρNPP) was “about five times increased”.

For `C=C1[C@@H](O)[C@@H]2O[C@]3(CC[C@H](/C=C/[C@@H](C)[C@@H]4CC(C)=C[C@@]5(O[C@H](C[C@@](C)(O)C(=O)O)CC[C@H]5O)O4)O3)CC[C@H]2O[C@@H]1[C@@H](O)C[C@H](C)[C@H]1O[C@@]2(CCCCO2)CC[C@H]1C` [okadaic acid], the IC50 (GST-PAPP5; phosphatase activity of GST-PAPP5, data not shown, read-out: IC50 of okadaic acid, at which the enzyme activity is inhibited by 50%) was 5 nM.

With GST-PAPP5 fusion protein (enzyme) the dephosphorylation of autophosphorylated phytochrome A (autoradiography after SDS-PAGE) [1] was 80%.

With “GST-PAPP5: a fusion protein of GST and full-length PAPP5” the “dephosphorylation of autophosphorylated oat Pfr phytochrome A” value [2] was “about 80%”.

B1: GST-TPR: fusion protein of GST and TPR domain of PAPP5, amino acids 1-138 of SEQ ID NO: 4 (protein)
chain: METKNENSDVSRAEEFKSQANEAFKGHKYSSAIDLYTKAIELNSNNAVYWANRAFAHTKLEEYGSAIQDASKAIEVDSRYSKGYYRRGAAYLAMGKFKDALKDFQQVKRLSPNDPDATRKLKECEKAVMKLKFEEAIS
In the case of B1, the “level of dephosphorylation of autophosphorylated oat Pfr phytochrome A (in words)” value [2] is reported as “do not affect the phosphorylation status” and the “ability to interact with phytochrome molecules (pull-down)” value (phytochrome molecules) is reported as “has the ability to interact”.

B2: B42-PP2Ac: TPR domain-deleted PP2A catalytic domain of PAPP5 as yeast two-hybrid prey (protein)
chain: SVPVSERRSVAESIDFHTIEVEPQYSGARIEGEEVTLDFVKTMMEDFKNQKTLHKRYAYQIVLQTRQILLALPSLVDISVPHGKHITVCGDVHGQFYDLLNIFELNGLPSEENPYLFNGDFVDRGSFSVEIILTLFAFKCMCPSSIYLARGNHESKSMNKIYGFEGEVRSKLSEKFVDLFAEVFCYLPLAHVINGKVFVVHGGLFSVDGVKLSDIRAIDRFCEPPEEGLMCELLWSDPQPLPGRGPSKRGVGLSFGGDVTKRFLQDNNLDLLVRSHEVKDEGYEVEHDGKLITVFSAPNYCDQMGNKGAFIRFEAPDMKPNIVTFSAVPHPDVKPMAYANNFLRMFN
In the case of B2, the “activity of interaction with phytochromes (β-galactosidase activity)” value (phytochromes) is reported as “remarkable reduction”.

B3: GST-PP2Ac: fusion of GST and PP2A catalytic domain of PAPP5 with a deletion of amino acids 1-138 in SEQ ID NO: 4 (protein)
chain: SVPVSERRSVAESIDFHTIEVEPQYSGARIEGEEVTLDFVKTMMEDFKNQKTLHKRYAYQIVLQTRQILLALPSLVDISVPHGKHITVCGDVHGQFYDLLNIFELNGLPSEENPYLFNGDFVDRGSFSVEIILTLFAFKCMCPSSIYLARGNHESKSMNKIYGFEGEVRSKLSEKFVDLFAEVFCYLPLAHVINGKVFVVHGGLFSVDGVKLSDIRAIDRFCEPPEEGLMCELLWSDPQPLPGRGPSKRGVGLSFGGDVTKRFLQDNNLDLLVRSHEVKDEGYEVEHDGKLITVFSAPNYCDQMGNKGAFIRFEAPDMKPNIVTFSAVPHPDVKPMAYANNFLRMFN
For B3, the “phosphatase activity relative to GST-PAPP5 with no arachidonic acid” value [3] was “five times higher activity” and the “level of dephosphorylation of autophosphorylated oat Pfr phytochrome A (in words)” value [2] was “very low”.
